Experimental data reported in US20250019446A1 (SHANGHAI SINOBAY BIOTECHNOLOGY, published 2025).

T1: human recombinant AXL protein, extracellular domain (hAXL-ECD) (human, UniProt P30530 26-451)
T1 construct: extracellular domain; Bought protein; also called antigen hAXL-ECD; hAXL-ECD protein
T1 sequence (looked up): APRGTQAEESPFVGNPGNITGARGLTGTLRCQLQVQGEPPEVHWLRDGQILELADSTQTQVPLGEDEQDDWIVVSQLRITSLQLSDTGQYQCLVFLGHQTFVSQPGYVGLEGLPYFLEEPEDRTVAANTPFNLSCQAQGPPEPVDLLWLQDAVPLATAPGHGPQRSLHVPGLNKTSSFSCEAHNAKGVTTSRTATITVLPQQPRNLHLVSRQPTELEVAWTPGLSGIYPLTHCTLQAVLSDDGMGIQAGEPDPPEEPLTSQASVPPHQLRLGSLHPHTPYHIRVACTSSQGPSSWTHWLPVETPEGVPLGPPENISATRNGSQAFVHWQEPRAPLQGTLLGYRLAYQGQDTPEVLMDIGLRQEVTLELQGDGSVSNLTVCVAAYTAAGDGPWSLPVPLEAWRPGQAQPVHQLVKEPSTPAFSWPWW

T2: AXL on CHO-AXL cells (human, UniProt P30530 26-894)
T2 construct: whole, on cells; The construct in the CHO-AXL cells is not described
T2 sequence (looked up): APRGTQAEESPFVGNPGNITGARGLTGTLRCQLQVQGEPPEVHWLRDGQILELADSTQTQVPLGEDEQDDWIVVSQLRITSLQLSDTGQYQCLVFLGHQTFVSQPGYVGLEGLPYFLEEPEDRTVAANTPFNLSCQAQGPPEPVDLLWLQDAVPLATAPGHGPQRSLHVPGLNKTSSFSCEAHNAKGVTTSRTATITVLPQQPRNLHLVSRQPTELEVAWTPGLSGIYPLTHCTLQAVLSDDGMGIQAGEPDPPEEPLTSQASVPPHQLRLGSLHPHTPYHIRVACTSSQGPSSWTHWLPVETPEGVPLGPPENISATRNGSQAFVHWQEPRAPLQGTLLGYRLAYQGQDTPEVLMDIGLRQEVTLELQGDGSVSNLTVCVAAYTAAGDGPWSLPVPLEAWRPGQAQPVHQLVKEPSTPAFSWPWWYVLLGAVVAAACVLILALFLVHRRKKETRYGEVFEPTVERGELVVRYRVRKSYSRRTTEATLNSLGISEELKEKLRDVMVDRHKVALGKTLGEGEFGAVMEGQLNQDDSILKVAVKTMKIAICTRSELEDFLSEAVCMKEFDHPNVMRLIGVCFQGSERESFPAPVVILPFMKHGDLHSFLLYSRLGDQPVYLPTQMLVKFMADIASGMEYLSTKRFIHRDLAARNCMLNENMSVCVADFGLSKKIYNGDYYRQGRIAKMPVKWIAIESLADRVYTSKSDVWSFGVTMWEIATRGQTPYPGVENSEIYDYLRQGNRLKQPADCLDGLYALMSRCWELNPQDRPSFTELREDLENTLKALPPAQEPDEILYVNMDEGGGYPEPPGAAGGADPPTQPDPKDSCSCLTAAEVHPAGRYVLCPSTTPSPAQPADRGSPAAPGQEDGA

B1: Hu001-7 Fab (clone 7, expressed in clone supernatant) (Fab, V domains shown)
VH: QVQLVQSGAEVKKPGSSVKVSCKASGGTFSSYAISWVRQAPGQGLEWMGGIIPIFGTANYAQKFQGRVTITADESTSTAYMELSSLRSEDTAVYYCAKDIVSRVRGELVGGYYYFGLDVWGQGTTVTVSA
VL: NIQLTQSPSSLSASVGDRVTITCRASQTISSYLNWYQQKPGKAPKLLIYAASRLQSGVPSRFSGSGSGTDFTLTISSLQPEDFATYYCQQSYSTPRTFGQGTKVEIK
notes: Fab from the phage library clone, tested as bacterial culture supernatant
B2: Hu001-5 Fab (clone 5, expressed in clone supernatant) (Fab, V domains shown)
VH: QVQLLESGGGVVQPGRSLRLSCAASGFTFSSYGMHWVRQAPGKGLEWVAVISYDGSNKYYADSVKGRFTISRDNSKNTLYLQMNSLRAEDTAVYYCAKDQVLAPVGGGLFDYWGQGTLVTVSA
VL: DIQLTQSPSSLSASVGDRVTITCRASQSISTYLNWYQQKPGKAPESLIFAASSLASGVPSRFSGSGSGTDFTLTISSLQPEDFATYYCQQSYSTPRTFGPGTKVEIK
notes: as for B1
B3: Hu001-5 antibody (full-length human IgG1, kappa) (antibody, V domains shown)
VH: QVQLLESGGGVVQPGRSLRLSCAASGFTFSSYGMHWVRQAPGKGLEWVAVISYDGSNKYYADSVKGRFTISRDNSKNTLYLQMNSLRAEDTAVYYCAKDQVLAPVGGGLFDYWGQGTLVTVSA
VL: DIQLTQSPSSLSASVGDRVTITCRASQSISTYLNWYQQKPGKAPESLIFAASSLASGVPSRFSGSGSGTDFTLTISSLQPEDFATYYCQQSYSTPRTFGPGTKVEIK
notes: built as human IgG1 with kappa light chain in vectors AbVec-hIgG1 WT and AbVec-hIgKappa, expressed in Expi293 cells; also called anti-AXL antibody Hu001-5
B4: Hu001-14 Fab (clone 14, expressed in clone supernatant) (Fab, V domains shown)
VH: EVQLVQSGAEVKKPGASVKVSCKASGYTFTSYYMHWVRQAPGQGLEWMGIINPSGGSTSYAQKFQGRVTMTRDTSTSTVYMELSSLRSEDSAVYYCARDWYFDVWGAGTTVTVSA
VL: NIQMTQSPSSVSASVGDRVTITCRASQGISSWLAWYQQKPGKAPKLLIYAASSLQSGVPSRFSGSGSGTDFTLTISSLQPEDFATYYCQQANSFPFTFGGGTKVEIK
notes: as for B1
B5: Hu001-11 Fab (clone 11, expressed in clone supernatant) (Fab, V domains shown)
VH: QVQLLESGGGVVQPGRSLRLSCAASGFTFSSYGMHWVRQAPGKGLEWVAVISYDGSNKYYADSVKGRFTISRDNSKNTLYLQMNSLRAEDTAVYYCAKYGSSGPYWYFDLWGQGTLVTVSA
VL: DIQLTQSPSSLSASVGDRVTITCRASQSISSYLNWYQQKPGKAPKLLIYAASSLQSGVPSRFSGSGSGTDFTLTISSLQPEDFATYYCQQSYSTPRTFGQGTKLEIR
notes: as for B1
B6: Hu001-11 antibody (full-length human IgG1, kappa) (antibody, V domains shown)
VH: QVQLLESGGGVVQPGRSLRLSCAASGFTFSSYGMHWVRQAPGKGLEWVAVISYDGSNKYYADSVKGRFTISRDNSKNTLYLQMNSLRAEDTAVYYCAKYGSSGPYWYFDLWGQGTLVTVSA
VL: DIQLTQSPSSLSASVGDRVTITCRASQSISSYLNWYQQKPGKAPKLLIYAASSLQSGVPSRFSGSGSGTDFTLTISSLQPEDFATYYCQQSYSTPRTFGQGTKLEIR
notes: built as human IgG1 with kappa light chain in vectors AbVec-hIgG1 WT and AbVec-hIgKappa, expressed in Expi293 cells; also called anti-AXL antibody Hu001-11

Assays:
[1] = target: T1, human recombinant AXL protein, …; assay: ELISA, Fab supernatant on coated hAXL-ECD, OD450; unit inferred, unit taken from the concentration axis
Protocol: Clones from the third round of selection were first picked up in a 96-well deep-well plate containing 300 μL of 2-YT medium and incubated overnight at 37° C. The supernatant, which contained the expressed Fab, was taken, diluted in a gradient, and added to an ELISA plate coated with 2 μg/mL of hAXL-ECD. HRP-labeled goat anti-human Fab was used as the secondary antibody (goat anti-human-HRP, ThermnoFisher, 31482, 1:6000 dilution) for detection. A higher signal value indicated a stronger affinity.

AXL on CHO-AXL cells [2] = target: T2, AXL on CHO-AXL cells; assay: flow cytometry on CHO-AXL cells, pH 6.0 and pH 7.4, IgG-Fc-PE secondary antibody
Protocol: (§1) The affinity of the candidate antibody for specific binding to hAXL-ECD was detected by flow cytometry. A total of 4 clones of Hu001-5, Hu001-7, Hu001-11, and Hu001-14 were tested under acidic (pH=6.0) and neutral (pH=7.4) conditions, respectively.
(§2) CHO-AXL cells (constructed by Shanghai Sinobay Biotechnology Co. Ltd.) were cultured in a cell culture flask in DMEM/F-12 medium (10% FBS, 1% penicillin/streptomycin). After 48 hours of culture at 37° C. in an incubator containing 5% CO₂, the supernatant was discarded. The cells were collected by digestion with 0.25% trypsin and centrifuged at 800 g for 3 minutes. The supernatant was discarded and the cells were resuspended (10⁶/mL) in 2% FBS Wash Buffer. The pH of the buffer was adjusted and the cells were divided into pH6.0 and pH7.4 groups, and primary antibodies (Hu001-5 antibody, Hu001-7 antibody, Hu001-11 antibody, Hu001-14 antibody, and positive control antibody CCT301-38) were added to each group and incubated for 15 minutes at room temperature. The supernatant was discarded. Fluorescent-labeled secondary antibody IgG-Fc-PE (BioLegend, cat. No. 409304) was added and incubation was continued at room temperature for 15 min in the dark. Then, the detection was performed on the machine. A higher signal value can indicate a stronger affinity. […]

AXL on CHO-AXL cells [3] = target: T2, AXL on CHO-AXL cells; assay: flow cytometry on CHO-AXL cells, pH 6.0 against pH 7.4
Protocol: as §1, §2

| Binder | EC50 [1] | fold of mean fluorescence intensity against the positive control CCT301-38 (AXL on CHO-AXL cells [2]) | fold of mean fluorescence intensity under the acidic condition against the neutral condition (AXL on CHO-AXL cells [3]) |
| --- | --- | --- | --- |
| B1 | 0.214 µg/mL |  |  |
| B2 | 0.292 µg/mL |  |  |
| B3 |  | ~4 fold | ~1.5 fold |
| B4 | 0.274 µg/mL |  |  |
| B5 | 0.14 µg/mL |  |  |
| B6 |  | ~4 fold | ~1.5 fold |
